Assay results from patent publication US20160200782A1 (MOERAE MATRIX, published 2016).

T1: Flt3(D835Y)(h) (human, UniProt P36888 564-993, limits assumed)
T1 sequence (looked up): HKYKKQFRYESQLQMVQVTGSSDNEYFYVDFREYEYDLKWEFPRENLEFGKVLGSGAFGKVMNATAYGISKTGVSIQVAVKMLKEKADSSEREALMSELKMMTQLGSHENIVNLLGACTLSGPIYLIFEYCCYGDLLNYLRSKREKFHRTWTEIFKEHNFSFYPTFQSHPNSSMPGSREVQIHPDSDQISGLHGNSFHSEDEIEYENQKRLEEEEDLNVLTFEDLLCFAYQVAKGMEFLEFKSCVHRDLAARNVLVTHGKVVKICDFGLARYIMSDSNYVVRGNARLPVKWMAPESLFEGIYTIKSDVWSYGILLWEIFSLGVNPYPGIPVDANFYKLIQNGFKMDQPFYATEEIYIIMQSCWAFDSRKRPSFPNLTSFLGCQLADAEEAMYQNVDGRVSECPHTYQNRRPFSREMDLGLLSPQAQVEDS

T2: EphB4(h) (human, UniProt P54760 561-987, limits assumed)
T2 sequence (looked up): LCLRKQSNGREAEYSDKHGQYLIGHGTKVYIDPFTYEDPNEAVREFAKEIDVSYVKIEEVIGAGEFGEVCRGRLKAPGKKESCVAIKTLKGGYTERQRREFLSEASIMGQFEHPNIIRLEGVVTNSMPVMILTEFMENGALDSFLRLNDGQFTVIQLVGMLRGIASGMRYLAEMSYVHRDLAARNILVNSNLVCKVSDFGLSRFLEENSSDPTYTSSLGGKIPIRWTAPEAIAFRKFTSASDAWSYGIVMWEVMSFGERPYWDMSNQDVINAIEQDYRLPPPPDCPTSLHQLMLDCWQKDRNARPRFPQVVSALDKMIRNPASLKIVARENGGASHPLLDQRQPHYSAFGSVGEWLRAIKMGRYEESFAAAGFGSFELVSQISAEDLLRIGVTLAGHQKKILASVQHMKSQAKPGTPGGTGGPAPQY

T3: TAO3(h) (human, UniProt Q9H2K8 1-315, limits assumed)
T3 sequence (looked up): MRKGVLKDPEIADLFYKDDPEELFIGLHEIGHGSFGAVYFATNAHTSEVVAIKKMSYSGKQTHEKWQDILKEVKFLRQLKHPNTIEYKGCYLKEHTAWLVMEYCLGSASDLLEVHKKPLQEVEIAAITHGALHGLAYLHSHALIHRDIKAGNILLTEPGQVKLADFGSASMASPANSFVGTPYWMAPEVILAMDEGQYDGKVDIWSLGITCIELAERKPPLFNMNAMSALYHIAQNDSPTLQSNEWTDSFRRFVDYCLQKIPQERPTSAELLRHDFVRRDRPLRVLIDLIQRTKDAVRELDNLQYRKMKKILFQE

T4: EphB2(h) (human, UniProt P29323 565-986, limits assumed)
T4 sequence (looked up): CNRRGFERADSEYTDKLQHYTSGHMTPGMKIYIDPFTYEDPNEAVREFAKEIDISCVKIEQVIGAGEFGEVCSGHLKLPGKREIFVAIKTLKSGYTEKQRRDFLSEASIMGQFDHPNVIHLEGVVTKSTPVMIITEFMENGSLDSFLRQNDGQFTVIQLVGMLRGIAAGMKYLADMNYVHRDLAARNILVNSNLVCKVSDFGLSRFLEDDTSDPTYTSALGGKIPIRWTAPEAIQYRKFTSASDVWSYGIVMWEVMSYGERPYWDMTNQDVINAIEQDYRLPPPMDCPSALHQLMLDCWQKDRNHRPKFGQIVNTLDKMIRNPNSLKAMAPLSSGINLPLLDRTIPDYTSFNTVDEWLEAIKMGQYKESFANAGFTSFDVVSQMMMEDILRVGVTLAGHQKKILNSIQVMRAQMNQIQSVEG

T5: NEK3(h) (human, UniProt P51956 1-506, limits assumed)
T5 sequence (looked up): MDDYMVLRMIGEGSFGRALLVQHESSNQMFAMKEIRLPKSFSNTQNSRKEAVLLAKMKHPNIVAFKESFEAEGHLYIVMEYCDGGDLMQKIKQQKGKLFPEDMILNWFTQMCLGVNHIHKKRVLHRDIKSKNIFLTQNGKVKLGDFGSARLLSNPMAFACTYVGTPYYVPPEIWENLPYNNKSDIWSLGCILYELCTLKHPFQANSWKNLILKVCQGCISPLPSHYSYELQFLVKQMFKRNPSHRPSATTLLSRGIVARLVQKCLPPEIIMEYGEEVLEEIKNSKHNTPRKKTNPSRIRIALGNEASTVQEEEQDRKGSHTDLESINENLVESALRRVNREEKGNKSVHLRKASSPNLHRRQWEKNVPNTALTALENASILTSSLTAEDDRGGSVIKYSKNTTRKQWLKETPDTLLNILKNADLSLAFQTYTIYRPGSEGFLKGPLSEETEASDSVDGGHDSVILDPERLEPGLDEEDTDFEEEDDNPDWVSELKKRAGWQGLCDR


Key:
Test in all cases: cell-based or functional assay
SAPK2b(h) = SAPK2b(h) (human, UniProt Q15759 1-364)
Chain of SAPK2b(h) (Q15759 whole entry): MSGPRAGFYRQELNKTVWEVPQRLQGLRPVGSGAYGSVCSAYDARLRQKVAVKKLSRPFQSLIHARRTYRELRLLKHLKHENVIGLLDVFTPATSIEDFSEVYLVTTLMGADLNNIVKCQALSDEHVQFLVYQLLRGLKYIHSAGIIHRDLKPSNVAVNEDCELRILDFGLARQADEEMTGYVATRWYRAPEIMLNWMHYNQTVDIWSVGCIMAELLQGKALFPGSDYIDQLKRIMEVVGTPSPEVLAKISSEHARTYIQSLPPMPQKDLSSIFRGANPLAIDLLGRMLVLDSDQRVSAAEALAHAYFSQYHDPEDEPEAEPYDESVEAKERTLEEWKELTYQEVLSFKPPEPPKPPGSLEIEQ

Fgr(h) = Fgr(h) (human, UniProt P09769 1-529, limits assumed)
PDGFRα(D842V)(h) = PDGFRα(D842V)(h) (human, UniProt P16234 550-1089, limits assumed)
Chain of PDGFRα(D842V)(h) (P16234 550-1089 D842V limits assumed): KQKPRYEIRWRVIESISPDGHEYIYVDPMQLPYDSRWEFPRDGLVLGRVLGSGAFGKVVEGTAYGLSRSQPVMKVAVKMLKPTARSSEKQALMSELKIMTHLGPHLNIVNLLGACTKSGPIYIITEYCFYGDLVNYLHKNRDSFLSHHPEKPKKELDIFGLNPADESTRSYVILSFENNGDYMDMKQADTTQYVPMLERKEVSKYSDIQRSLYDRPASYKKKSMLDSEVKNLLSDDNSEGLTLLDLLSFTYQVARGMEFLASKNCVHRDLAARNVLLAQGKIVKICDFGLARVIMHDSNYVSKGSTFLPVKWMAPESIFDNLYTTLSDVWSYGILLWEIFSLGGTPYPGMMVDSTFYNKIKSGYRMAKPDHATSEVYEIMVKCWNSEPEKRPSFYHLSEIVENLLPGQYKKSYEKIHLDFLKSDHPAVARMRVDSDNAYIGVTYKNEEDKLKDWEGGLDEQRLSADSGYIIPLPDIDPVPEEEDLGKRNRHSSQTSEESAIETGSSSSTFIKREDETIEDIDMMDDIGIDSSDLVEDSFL

CDK5/p35(h) = CDK5/p35(h) (human, UniProt Q00535 1-292; Q15078 1-307)
Flt3(D835Y)(h) = molecular target: T1, Flt3(D835Y)(h)
NEK7(h) = NEK7(h) (human, UniProt Q8TDX7 1-302)
Chain of NEK7(h) (Q8TDX7 whole entry): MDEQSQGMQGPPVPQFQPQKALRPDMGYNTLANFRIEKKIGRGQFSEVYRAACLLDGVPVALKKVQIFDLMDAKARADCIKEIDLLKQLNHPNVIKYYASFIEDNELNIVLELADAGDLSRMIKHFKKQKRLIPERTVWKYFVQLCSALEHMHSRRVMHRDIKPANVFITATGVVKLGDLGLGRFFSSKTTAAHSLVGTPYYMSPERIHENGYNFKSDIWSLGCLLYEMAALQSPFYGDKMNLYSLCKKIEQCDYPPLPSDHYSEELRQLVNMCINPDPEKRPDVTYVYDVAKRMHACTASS

EphB4(h) = molecular target: T2, EphB4(h)
WNK2(h) = WNK2(h) (human, UniProt Q9Y3S1 166-489, limits assumed)
Chain of WNK2(h) (Q9Y3S1 166-489 limits assumed): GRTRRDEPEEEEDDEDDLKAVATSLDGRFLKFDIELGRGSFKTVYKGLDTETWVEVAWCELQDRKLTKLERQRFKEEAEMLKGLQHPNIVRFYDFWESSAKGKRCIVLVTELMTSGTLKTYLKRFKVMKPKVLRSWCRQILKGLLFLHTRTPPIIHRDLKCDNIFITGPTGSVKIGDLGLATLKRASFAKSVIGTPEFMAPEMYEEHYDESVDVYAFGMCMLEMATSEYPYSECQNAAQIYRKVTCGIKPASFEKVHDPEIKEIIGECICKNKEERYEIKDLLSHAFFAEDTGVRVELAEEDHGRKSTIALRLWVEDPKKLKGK

TAO3(h) = molecular target: T3, TAO3(h)
EphB2(h) = molecular target: T4, EphB2(h)
MLCK(h) = MLCK(h) (human)
PKBα(h) = PKBα(h) (human, UniProt P31749 1-480, limits assumed)
Chain of PKBα(h) (P31749 whole entry): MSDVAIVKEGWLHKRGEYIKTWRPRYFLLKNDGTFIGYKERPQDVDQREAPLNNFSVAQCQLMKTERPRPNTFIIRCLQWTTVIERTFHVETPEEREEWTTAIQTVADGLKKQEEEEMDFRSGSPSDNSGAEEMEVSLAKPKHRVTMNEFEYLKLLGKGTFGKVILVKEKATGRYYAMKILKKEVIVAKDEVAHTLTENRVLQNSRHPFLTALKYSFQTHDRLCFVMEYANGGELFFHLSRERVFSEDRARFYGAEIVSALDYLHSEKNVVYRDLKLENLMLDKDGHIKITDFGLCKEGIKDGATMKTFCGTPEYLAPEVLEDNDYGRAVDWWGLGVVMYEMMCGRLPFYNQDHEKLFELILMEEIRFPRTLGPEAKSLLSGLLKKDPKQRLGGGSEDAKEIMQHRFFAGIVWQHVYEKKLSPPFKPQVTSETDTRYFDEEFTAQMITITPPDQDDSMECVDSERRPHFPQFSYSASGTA

IGF-1R(h), activated = IGF-1R(h), activated (human, UniProt P08069 959-1367, limits assumed)
Chain of IGF-1R(h), activated (P08069 959-1367 limits assumed): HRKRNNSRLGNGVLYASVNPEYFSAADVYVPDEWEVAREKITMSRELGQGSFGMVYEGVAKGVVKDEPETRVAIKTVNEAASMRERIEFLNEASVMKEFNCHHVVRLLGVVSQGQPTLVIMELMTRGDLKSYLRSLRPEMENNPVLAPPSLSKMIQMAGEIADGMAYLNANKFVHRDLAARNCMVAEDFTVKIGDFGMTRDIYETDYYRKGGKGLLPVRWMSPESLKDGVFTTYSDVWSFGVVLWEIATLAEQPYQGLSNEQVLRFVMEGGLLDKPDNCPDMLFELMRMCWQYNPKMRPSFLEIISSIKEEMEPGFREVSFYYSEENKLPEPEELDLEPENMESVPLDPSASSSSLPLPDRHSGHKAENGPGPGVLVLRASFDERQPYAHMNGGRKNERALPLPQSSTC

NEK3(h) = molecular target: T5, NEK3(h)
Rsk4(h) = Rsk4(h) (human, UniProt Q9UK32 1-745, limits assumed)
Chain of Rsk4(h) (Q9UK32 whole entry): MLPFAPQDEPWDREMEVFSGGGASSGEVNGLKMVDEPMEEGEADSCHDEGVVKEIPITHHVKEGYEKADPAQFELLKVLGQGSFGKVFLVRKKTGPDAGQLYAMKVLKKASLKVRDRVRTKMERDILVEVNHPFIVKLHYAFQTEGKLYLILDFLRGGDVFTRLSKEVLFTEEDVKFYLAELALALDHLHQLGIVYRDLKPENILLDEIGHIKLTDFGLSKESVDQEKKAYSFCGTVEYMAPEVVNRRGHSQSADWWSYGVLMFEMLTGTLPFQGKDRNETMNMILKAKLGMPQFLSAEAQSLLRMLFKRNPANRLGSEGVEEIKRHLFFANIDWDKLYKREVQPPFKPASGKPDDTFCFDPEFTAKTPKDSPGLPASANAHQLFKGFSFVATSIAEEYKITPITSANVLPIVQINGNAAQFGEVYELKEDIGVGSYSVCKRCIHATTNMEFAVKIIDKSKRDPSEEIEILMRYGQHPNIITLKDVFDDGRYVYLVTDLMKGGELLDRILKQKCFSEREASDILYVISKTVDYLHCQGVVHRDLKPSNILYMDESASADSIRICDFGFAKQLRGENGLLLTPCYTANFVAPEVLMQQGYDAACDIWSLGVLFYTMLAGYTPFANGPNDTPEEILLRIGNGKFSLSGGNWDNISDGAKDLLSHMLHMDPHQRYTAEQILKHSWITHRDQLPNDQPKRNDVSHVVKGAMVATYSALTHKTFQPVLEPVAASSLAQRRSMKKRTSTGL

| Binder | % activity (SAPK2b(h)) [%] | % activity (Fgr(h)) [%] | % activity (PDGFRα(D842V)(h)) [%] | % activity (CDK5/p35(h)) [%] | % activity (Flt3(D835Y)(h)) [%] | % activity (NEK7(h)) [%] | % activity (EphB4(h)) [%] | % activity (WNK2(h)) [%] | % activity (TAO3(h)) [%] | % activity (EphB2(h)) [%] | % activity (MLCK(h)) [%] | % activity (PKBα(h)) [%] | % activity (IGF-1R(h), activated) [%] | % activity (NEK3(h)) [%] | % activity (Rsk4(h)) [%] |
| --- | --- | --- | --- | --- | --- | --- | --- | --- | --- | --- | --- | --- | --- | --- | --- |
| FAKLAARLYRKALARQLGVAA [MMI-0300] | 81 | 60 | 114 | 79 | 80 | 84 | 44 | 64 | 77 | 18 | 2 | 57 | 80 | 92 | 90 |
| KAFAKLAARLYRKALARQLGVAA [MMI-0400] | 82 | 47 | 118 | 76 | 71 | 87 | 28 | 54 | 67 | 22 | 1 | 67 | 77 | 85 | 91 |
